Consider seven molecules from patent US20190077860A1 (EISAI R AND D MANAGEMENT, published 2019).

For test [1], the target named is T1, human EphA1 extracellular region-SEAP-His protein (human, UniProt P21709 26-547).
T1 construct: extracellular domain; also called hEphA1-SEAP-His
T1 sequence (looked up): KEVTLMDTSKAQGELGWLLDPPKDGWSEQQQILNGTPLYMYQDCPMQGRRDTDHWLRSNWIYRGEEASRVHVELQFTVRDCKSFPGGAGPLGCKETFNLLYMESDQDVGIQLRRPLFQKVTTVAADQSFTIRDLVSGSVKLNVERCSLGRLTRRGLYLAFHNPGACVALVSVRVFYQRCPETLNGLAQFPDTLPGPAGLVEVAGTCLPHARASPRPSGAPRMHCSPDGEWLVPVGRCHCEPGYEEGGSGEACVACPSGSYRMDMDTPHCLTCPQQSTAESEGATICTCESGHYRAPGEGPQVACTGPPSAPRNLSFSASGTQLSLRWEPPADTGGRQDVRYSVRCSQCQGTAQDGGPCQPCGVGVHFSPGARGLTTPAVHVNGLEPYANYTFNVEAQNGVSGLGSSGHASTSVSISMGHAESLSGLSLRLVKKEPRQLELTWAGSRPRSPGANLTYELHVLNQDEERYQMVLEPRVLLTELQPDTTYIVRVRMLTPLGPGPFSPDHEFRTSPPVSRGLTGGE
Nature of the test: ELISA. For orientation: ELISA stands for enzyme-linked immunosorbent assay.

Test [2] has as its target T2, human EphB1 extracellular region-SEAP-His protein (human, UniProt P54762 18-540).
T2 construct: extracellular domain; also called hEphB1-SEAP-His
T2 sequence (looked up): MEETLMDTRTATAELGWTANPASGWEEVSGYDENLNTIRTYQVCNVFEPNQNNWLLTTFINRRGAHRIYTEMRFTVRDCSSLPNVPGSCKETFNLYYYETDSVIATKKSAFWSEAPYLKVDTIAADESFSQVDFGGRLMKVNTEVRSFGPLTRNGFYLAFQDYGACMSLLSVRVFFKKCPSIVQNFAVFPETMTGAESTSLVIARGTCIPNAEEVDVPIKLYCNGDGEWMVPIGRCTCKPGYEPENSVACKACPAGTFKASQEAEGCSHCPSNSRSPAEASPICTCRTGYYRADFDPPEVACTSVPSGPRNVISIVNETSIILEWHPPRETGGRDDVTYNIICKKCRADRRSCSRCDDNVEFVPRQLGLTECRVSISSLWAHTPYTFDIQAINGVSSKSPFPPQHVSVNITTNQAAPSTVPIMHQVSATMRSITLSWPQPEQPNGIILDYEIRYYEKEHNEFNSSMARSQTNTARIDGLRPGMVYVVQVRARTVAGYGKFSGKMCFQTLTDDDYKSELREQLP
Nature of the test: ELISA.

B1: humanized antibody No. 75 (antibody, human IgG1, kappa)
heavy: QVQLVQSGSELKKPGASVKVSCKASGYTFTDYSMHWVRQAPGQGLEWMGWINTETGEPTYAQGFTGRFVFSLDTSVSTAYLQISSLKAEDTAVYYCARIPLYYYGSRYWYFDVWGQGTTVTVSSASTKGPSVFPLAPSSKSTSGGTAALGCLVKDYFPEPVTVSWNSGALTSGVHTFPAVLQSSGLYSLSSVVTVPSSSLGTQTYICNVNHKPSNTKVDKRVEPKSCDKTHTCPPCPAPPAAAPSVFLFPPKPKDTLMISRTPEVTCVVVDVSHEDPEVQFNWYVDGVEVHNAKTKPREEQFNSTFRVVSVLTVVHQDWLNGKEYKCKVSNKGLPAPIEKTISKTKGQPREPQVYTLPPSREEMTKNQVSLTCLVKGFYPSDIAVEWESNGQPENNYKTTPPMLDSDGSFFLYSKLTVDKSRWQQGNVFSCSVMHEALHNHYTQKSLSLSPG
light: DIQMTQSPSSLSASVGDRVTITCRASENIYRNLAWYQQKPGKAPKLLVYAATNLADGVPSRFSGSGSGTDYTLTISSLQPEDFATYYCQHFWGTPWTFGQGTKVEIKRTVAAPSVFIFPPSDEQLKSGTASVVCLLNNFYPREAKVQWKVDNALQSGNSQESVTEQDSKDSTYSLSSTLTLSKADYEKHKVYACEVTHQGLSSPVTKSFNRGEC
notes: constant region: human IgG1 CH1 and hinge, human IgG2 CH2 and CH3 with V234A, G237A, no C-terminal Lys; human Ig kappa; also called L1-4/HA1
With B1, the “A450 as % of hEphA4-SEAP-His” value in test [1] was 4.7%; in test [2] it was 4.4%.

B2: humanized antibody No. 83 (antibody, human IgG1, kappa)
heavy: QIQLVQSGSELKKPGASVKVSCKASGYTFTDYSMHWVRQAPGQGLKWMGWINTETGEPTYAQGFTGRFVFSLDTSVSTAYLQISSLKAEDTAVYYCARIPLYYYGSRYWYFDVWGQGTTVTVSSASTKGPSVFPLAPSSKSTSGGTAALGCLVKDYFPEPVTVSWNSGALTSGVHTFPAVLQSSGLYSLSSVVTVPSSSLGTQTYICNVNHKPSNTKVDKRVEPKSCDKTHTCPPCPAPPAAAPSVFLFPPKPKDTLMISRTPEVTCVVVDVSHEDPEVQFNWYVDGVEVHNAKTKPREEQFNSTFRVVSVLTVVHQDWLNGKEYKCKVSNKGLPAPIEKTISKTKGQPREPQVYTLPPSREEMTKNQVSLTCLVKGFYPSDIAVEWESNGQPENNYKTTPPMLDSDGSFFLYSKLTVDKSRWQQGNVFSCSVMHEALHNHYTQKSLSLSPG
light: DIQMTQSPSSLSASVGDRVTITCRASENIYRNLAWYQQKPGKAPKLLLYAATNLADGVPSRFSGSGSGTDYTLTISSLQSEDFATYYCQHFWGTPWTFGQGTKVEIKRTVAAPSVFIFPPSDEQLKSGTASVVCLLNNFYPREAKVQWKVDNALQSGNSQESVTEQDSKDSTYSLSSTLTLSKADYEKHKVYACEVTHQGLSSPVTKSFNRGEC
notes: human Ig kappa; also called L1-5/HA4
On to B2, for which the “A450 as % of hEphA4-SEAP-His” value amounted to 5.7% in test [1] and 5.6% in test [2].

B3: humanized antibody No. 77 (antibody, human IgG1, kappa)
heavy: QVQLVQSGSELKKPGASVKVSCKASGYTFTDYSMHWVRQAPGQGLEWMGWINTETGEPTYADDFKGRFVFSLDTSVSTAYLQISSLKAEDTAVYYCARIPLYYYGSRYWYFDVWGQGTTVTVSSASTKGPSVFPLAPSSKSTSGGTAALGCLVKDYFPEPVTVSWNSGALTSGVHTFPAVLQSSGLYSLSSVVTVPSSSLGTQTYICNVNHKPSNTKVDKRVEPKSCDKTHTCPPCPAPPAAAPSVFLFPPKPKDTLMISRTPEVTCVVVDVSHEDPEVQFNWYVDGVEVHNAKTKPREEQFNSTFRVVSVLTVVHQDWLNGKEYKCKVSNKGLPAPIEKTISKTKGQPREPQVYTLPPSREEMTKNQVSLTCLVKGFYPSDIAVEWESNGQPENNYKTTPPMLDSDGSFFLYSKLTVDKSRWQQGNVFSCSVMHEALHNHYTQKSLSLSPG
light: DIQMTQSPSSLSASVGDRVTITCRASENIYRNLAWYQQKPGKAPKLLVYAATNLADGVPSRFSGSGSGTDYTLTISSLQPEDFATYYCQHFWGTPWTFGQGTKVEIKRTVAAPSVFIFPPSDEQLKSGTASVVCLLNNFYPREAKVQWKVDNALQSGNSQESVTEQDSKDSTYSLSSTLTLSKADYEKHKVYACEVTHQGLSSPVTKSFNRGEC
notes: human Ig kappa; also called L1-4/HK1
For B3, the entries for the “A450 as % of hEphA4-SEAP-His” value in test [1] and in test [2] were 4.5% and 4.6%, respectively.

B4: humanized antibody No. 81 (antibody, human IgG1, kappa)
heavy: QVQLVQSGSELKKPGASVKVSCKASGYTFTDYSMHWVRQAPGQGLEWMGWINTETGEPTYAQGFTGRFVFSLDTSVSTAYLQISSLKAEDTAVYYCARIPLYYYGSRYWYFDVWGQGTTVTVSSASTKGPSVFPLAPSSKSTSGGTAALGCLVKDYFPEPVTVSWNSGALTSGVHTFPAVLQSSGLYSLSSVVTVPSSSLGTQTYICNVNHKPSNTKVDKRVEPKSCDKTHTCPPCPAPPAAAPSVFLFPPKPKDTLMISRTPEVTCVVVDVSHEDPEVQFNWYVDGVEVHNAKTKPREEQFNSTFRVVSVLTVVHQDWLNGKEYKCKVSNKGLPAPIEKTISKTKGQPREPQVYTLPPSREEMTKNQVSLTCLVKGFYPSDIAVEWESNGQPENNYKTTPPMLDSDGSFFLYSKLTVDKSRWQQGNVFSCSVMHEALHNHYTQKSLSLSPG
light: DIQMTQSPSSLSASVGDRVTITCRASENIYRNLAWYQQKPGKAPKLLLYAATNLADGVPSRFSGSGSGTDYTLTISSLQSEDFATYYCQHFWGTPWTFGQGTKVEIKRTVAAPSVFIFPPSDEQLKSGTASVVCLLNNFYPREAKVQWKVDNALQSGNSQESVTEQDSKDSTYSLSSTLTLSKADYEKHKVYACEVTHQGLSSPVTKSFNRGEC
notes: human Ig kappa; also called L1-5/HA1
Take B4: the “A450 as % of hEphA4-SEAP-His” value was determined as 4.4% in test [1] and 4.9% in test [2].

B5: humanized antibody No. 78 (antibody, human IgG1, kappa)
heavy: QVQLVQSGSELKKPGASVKVSCKASGYTFTDYSMHWVRQAPGQGLKWMGWINTETGEPTYADDFKGRFVFSLDTSVSTAYLQISSLKAEDTAVYYCARIPLYYYGSRYWYFDVWGQGTTVTVSSASTKGPSVFPLAPSSKSTSGGTAALGCLVKDYFPEPVTVSWNSGALTSGVHTFPAVLQSSGLYSLSSVVTVPSSSLGTQTYICNVNHKPSNTKVDKRVEPKSCDKTHTCPPCPAPPAAAPSVFLFPPKPKDTLMISRTPEVTCVVVDVSHEDPEVQFNWYVDGVEVHNAKTKPREEQFNSTFRVVSVLTVVHQDWLNGKEYKCKVSNKGLPAPIEKTISKTKGQPREPQVYTLPPSREEMTKNQVSLTCLVKGFYPSDIAVEWESNGQPENNYKTTPPMLDSDGSFFLYSKLTVDKSRWQQGNVFSCSVMHEALHNHYTQKSLSLSPG
light: DIQMTQSPSSLSASVGDRVTITCRASENIYRNLAWYQQKPGKAPKLLVYAATNLADGVPSRFSGSGSGTDYTLTISSLQPEDFATYYCQHFWGTPWTFGQGTKVEIKRTVAAPSVFIFPPSDEQLKSGTASVVCLLNNFYPREAKVQWKVDNALQSGNSQESVTEQDSKDSTYSLSSTLTLSKADYEKHKVYACEVTHQGLSSPVTKSFNRGEC
notes: human Ig kappa; also called L1-4/HK2
As for B5, the results for the “A450 as % of hEphA4-SEAP-His” value in test [1] and in test [2] were 6.6% and 5%, respectively.

B6: humanized antibody No. 82 (antibody, human IgG1, kappa)
heavy: QVQLVQSGSELKKPGASVKVSCKASGYTFTDYSMHWVRQAPGQGLKWMGWINTETGEPTYAQGFTGRFVFSLDTSVSTAYLQISSLKAEDTAVYYCARIPLYYYGSRYWYFDVWGQGTTVTVSSASTKGPSVFPLAPSSKSTSGGTAALGCLVKDYFPEPVTVSWNSGALTSGVHTFPAVLQSSGLYSLSSVVTVPSSSLGTQTYICNVNHKPSNTKVDKRVEPKSCDKTHTCPPCPAPPAAAPSVFLFPPKPKDTLMISRTPEVTCVVVDVSHEDPEVQFNWYVDGVEVHNAKTKPREEQFNSTFRVVSVLTVVHQDWLNGKEYKCKVSNKGLPAPIEKTISKTKGQPREPQVYTLPPSREEMTKNQVSLTCLVKGFYPSDIAVEWESNGQPENNYKTTPPMLDSDGSFFLYSKLTVDKSRWQQGNVFSCSVMHEALHNHYTQKSLSLSPG
light: DIQMTQSPSSLSASVGDRVTITCRASENIYRNLAWYQQKPGKAPKLLLYAATNLADGVPSRFSGSGSGTDYTLTISSLQSEDFATYYCQHFWGTPWTFGQGTKVEIKRTVAAPSVFIFPPSDEQLKSGTASVVCLLNNFYPREAKVQWKVDNALQSGNSQESVTEQDSKDSTYSLSSTLTLSKADYEKHKVYACEVTHQGLSSPVTKSFNRGEC
notes: human Ig kappa; also called L1-5/HA2
For the molecule B6, the “A450 as % of hEphA4-SEAP-His” value in test [1] and in test [2] was 5.4% throughout.

B7: humanized antibody No. 84 (antibody, human IgG1, kappa)
heavy: QVQLVQSGSELKKPGASVKVSCKASGYTFTDYSMHWVRQAPGQGLEWMGWINTETGEPTYADDFKGRFVFSLDTSVSTAYLQISSLKAEDTAVYYCARIPLYYYGSRYWYFDVWGQGTTVTVSSASTKGPSVFPLAPSSKSTSGGTAALGCLVKDYFPEPVTVSWNSGALTSGVHTFPAVLQSSGLYSLSSVVTVPSSSLGTQTYICNVNHKPSNTKVDKRVEPKSCDKTHTCPPCPAPPAAAPSVFLFPPKPKDTLMISRTPEVTCVVVDVSHEDPEVQFNWYVDGVEVHNAKTKPREEQFNSTFRVVSVLTVVHQDWLNGKEYKCKVSNKGLPAPIEKTISKTKGQPREPQVYTLPPSREEMTKNQVSLTCLVKGFYPSDIAVEWESNGQPENNYKTTPPMLDSDGSFFLYSKLTVDKSRWQQGNVFSCSVMHEALHNHYTQKSLSLSPG
light: DIQMTQSPSSLSASVGDRVTITCRASENIYRNLAWYQQKPGKAPKLLLYAATNLADGVPSRFSGSGSGTDYTLTISSLQSEDFATYYCQHFWGTPWTFGQGTKVEIKRTVAAPSVFIFPPSDEQLKSGTASVVCLLNNFYPREAKVQWKVDNALQSGNSQESVTEQDSKDSTYSLSSTLTLSKADYEKHKVYACEVTHQGLSSPVTKSFNRGEC
notes: human Ig kappa; also called L1-5/HK1
For the molecule B7, the “A450 as % of hEphA4-SEAP-His” value in test [1] and in test [2] was 5.2% in each case.
